Data set [1] addresses T1, Elba1;Elba2;Elba3 (Drosophila melanogaster?;Drosophila …, UniProt Q9VR17;Q9VQD6;Q9VR19 1-363;1-381;1-379, ||).
T1 sequence 1: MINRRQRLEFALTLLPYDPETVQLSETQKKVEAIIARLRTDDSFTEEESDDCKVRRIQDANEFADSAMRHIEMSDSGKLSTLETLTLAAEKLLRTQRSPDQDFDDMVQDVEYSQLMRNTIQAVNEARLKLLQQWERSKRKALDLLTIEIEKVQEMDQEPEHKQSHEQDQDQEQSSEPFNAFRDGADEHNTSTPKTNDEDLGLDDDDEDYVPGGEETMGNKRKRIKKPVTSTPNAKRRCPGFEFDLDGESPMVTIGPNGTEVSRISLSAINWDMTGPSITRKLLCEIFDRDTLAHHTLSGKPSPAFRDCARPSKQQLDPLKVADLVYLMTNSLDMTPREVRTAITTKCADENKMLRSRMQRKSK
T1 sequence 2: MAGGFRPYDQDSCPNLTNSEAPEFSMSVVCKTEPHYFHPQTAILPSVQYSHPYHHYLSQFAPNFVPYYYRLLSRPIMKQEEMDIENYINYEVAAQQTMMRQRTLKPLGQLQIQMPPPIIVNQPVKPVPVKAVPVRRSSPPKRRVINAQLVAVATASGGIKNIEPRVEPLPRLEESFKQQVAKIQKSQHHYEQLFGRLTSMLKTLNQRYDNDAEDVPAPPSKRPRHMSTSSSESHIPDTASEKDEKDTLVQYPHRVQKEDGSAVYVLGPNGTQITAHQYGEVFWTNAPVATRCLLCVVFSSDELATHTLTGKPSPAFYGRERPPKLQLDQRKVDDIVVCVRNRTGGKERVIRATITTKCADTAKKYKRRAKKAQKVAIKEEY
T1 sequence 3: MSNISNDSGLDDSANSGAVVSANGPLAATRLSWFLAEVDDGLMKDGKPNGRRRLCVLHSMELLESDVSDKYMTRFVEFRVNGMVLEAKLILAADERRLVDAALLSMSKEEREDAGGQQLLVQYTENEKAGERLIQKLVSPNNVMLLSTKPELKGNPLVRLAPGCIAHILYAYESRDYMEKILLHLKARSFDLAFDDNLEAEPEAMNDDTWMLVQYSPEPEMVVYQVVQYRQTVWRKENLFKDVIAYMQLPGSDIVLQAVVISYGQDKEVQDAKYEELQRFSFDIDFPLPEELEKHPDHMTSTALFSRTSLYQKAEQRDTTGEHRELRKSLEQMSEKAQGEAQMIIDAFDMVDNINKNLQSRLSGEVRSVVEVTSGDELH
Briefly: competition; 100-fold excess; EMSA: ~0.1 M KCl, 12.5-250 ug/ml poly(dI-dC):poly(dI-dC), 1/2 hr at room temperature, 4% acrylamide gel, otherwise as Aoki et al. 2008; affinity beads: HBB (10). The settings on record: protein: ivt;ivt;ivt; tags: none;none;none; copies: 1;1;1; label: none. (In general: Mobility shift assays separate free from complexed probe on a gel.)

Data set [2] concerns the target T2, GST-Elba1F;GST-Elba2F (Drosophila melanogaster?;Drosophila …, UniProt Q9VR17;Q9VQD6 1-363;1-381, |).
T2 sequence 1: T1 sequence 1
T2 sequence 2: T1 sequence 2
Briefly: EMSA; co-translated; EMSA: ~0.1 M KCl, 12.5-250 ug/ml poly(dI-dC):poly(dI-dC), 1/2 hr at room temperature, 4% acrylamide gel, otherwise as Aoki et al. 2008; affinity beads: HBB (10). The note with it: protein: ivt;ivt; tags: N-terminal FLAG and GST;N-terminal FLAG and GST; copies: 1;1.

Data set [3] has as its target T3, GST-Elba1F;GST-Elba2F;FLAG-Elba3F (Drosophila melanogaster?;Drosophila …, UniProt Q9VR17;Q9VQD6;Q9VR19 1-363;1-381;1-379, ||).
T3 sequence 1: T1 sequence 1
T3 sequence 2: T1 sequence 2
T3 sequence 3: T1 sequence 3
Briefly: EMSA; supershift by Elba3; EMSA: ~0.1 M KCl, 12.5-250 ug/ml poly(dI-dC):poly(dI-dC), 1/2 hr at room temperature, 4% acrylamide gel, otherwise as Aoki et al. 2008; affinity beads: HBB (10). The settings on record: protein: ivt;ivt;ivt; tags: N-terminal FLAG and GST;N-terminal FLAG and GST;N-terminal FLAG; copies: 1;1;1.

Data set [4] has as its target T4, GST-Elba1 BEN;GST-Elba2 BEN (Drosophila melanogaster?;Drosophila …, UniProt Q9VR17;Q9VQD6 255-363;268-381, |).
T4 sequence 1: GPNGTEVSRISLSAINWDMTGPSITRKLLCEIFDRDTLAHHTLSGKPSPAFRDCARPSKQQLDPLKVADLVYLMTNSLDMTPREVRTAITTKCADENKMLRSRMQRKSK
T4 sequence 2: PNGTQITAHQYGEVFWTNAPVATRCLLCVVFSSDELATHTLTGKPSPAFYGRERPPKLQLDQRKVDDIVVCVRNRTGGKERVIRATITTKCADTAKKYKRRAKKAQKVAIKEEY
The data set can be described thus: EMSA; EMSA: ~0.1 M KCl, 12.5-250 ug/ml poly(dI-dC):poly(dI-dC), 1/2 hr at room temperature, 4% acrylamide gel, otherwise as Aoki et al. 2008; affinity beads: HBB (10). The settings on record: protein: ivt;ivt; tags: N-terminal FLAG and GST;N-terminal FLAG and GST; copies: 1;1.

Data set [5] concerns the target T1, Elba1;Elba2;Elba3. The description is as above. The settings on record: protein: ivt;ivt;ivt; tags: none;none;none; copies: 1;1;1.
The target of data set [6] is T5, FLAG-Elba1F;FLAG-Elba2F;FLAG-Elba3F (Drosophila melanogaster?;Drosophila …, UniProt Q9VR17;Q9VQD6;Q9VR19 1-363;1-381;1-379, ||).
T5 sequence 1: T1 sequence 1
T5 sequence 2: T1 sequence 2
T5 sequence 3: T1 sequence 3
The data set is described as above. The settings on record: protein: ivt;ivt;ivt; tags: N-terminal FLAG;N-terminal FLAG;N-terminal FLAG; copies: 1;1;1.

The source of these data is publication PMC3510454, “Elba, a novel developmentally regulated chromatin boundary factor is a hetero-tripartite DNA binding complex”.

B1: M6 oligo (dsDNA)
DNA 1: TGCAGCGCCCAATAAGCAAATGTACGC
DNA 2: GCGTACATTTGCTTATTGGGCGCTGCA
modifications: 3-bp substitution
With B1, the binding result in data set [1] is “binds”.

B2: Elba probe 27 bp (WT) (dsDNA)
DNA 1: TGCAGCGCCCAATAAGCAAATGGCAGC
DNA 2: GCTGCCATTTGCTTATTGGGCGCTGCA
As to B2, the binding result was “binds” in data set [2]; “binds” in data set [3]; “no binding” in data set [4]; “binds” in data set [5]; “binds” in data set [6].
